The text below walks through data of patent publication US20240383985A1 (published 2024).

A word on the EC50: it is the concentration needed to bring the measured effect to its halfway point. A higher EC50 goes with weaker potency.

This assay has as its target CD33 naturally expressed on HL60 cells (human, UniProt P20138 18-364). Kind of assay: FACS. In general terms: Flow cytometry measures light scatter and fluorescence of single cells or particles in a stream.

Sequence of CD33 naturally expressed on HL60 cells (P20138 18-364): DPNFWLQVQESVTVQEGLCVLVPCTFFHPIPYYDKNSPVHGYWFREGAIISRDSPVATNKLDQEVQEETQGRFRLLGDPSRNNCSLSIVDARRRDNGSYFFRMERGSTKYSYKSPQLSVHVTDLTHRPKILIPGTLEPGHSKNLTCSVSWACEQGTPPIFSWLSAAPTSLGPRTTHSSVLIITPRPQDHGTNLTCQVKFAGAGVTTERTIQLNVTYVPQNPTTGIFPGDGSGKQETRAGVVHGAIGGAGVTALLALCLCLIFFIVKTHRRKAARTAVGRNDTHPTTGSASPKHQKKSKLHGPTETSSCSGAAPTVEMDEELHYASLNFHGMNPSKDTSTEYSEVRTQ

B1: QP42884285 (antibody)
chain 1: DIVMTQSPDSLTVSLGERTTINCKSSQSVLDSSTNKNSLAWYQQKPGQPPKLLLSWASTRESGIPDRFSGSGSGTDFTLTIDSPQPEDSATYYCQQSAHFPITFGQGTRLEIKTVAAPSVFIFPPSYVLTQPSSVSVAPGQTATISCGGHNIGSKNVHWYQQRPGQSPVLVIYQDNKRPSGIPERFSGSNSGNTATLTISGTQAMDEADYYCQVWDNYSVLFGGGTKLTVLRTVAAPSVFIFPPSDEQLKSGTASVVCLLNNFYPREAKVQWKVDNALQSGNSQESVTEQDSKDSTYSLSSTLTLSKADYEKHKVYACEVTHQGLSSPVTKSFNRGEC
chain 2: QVQLVQSGAEVKKPGESVKVSCKASGYTFTNYGMNWVKQAPGQGLEWMGWINTYTGEPTYADKFQGRVTMTTDTSTSTAYMEIRNLGGDDTAVYYCARWSWSDGYYVYFDYWGQGTSVTVSSASTKGPQVQLVQSGAEVKKPGESLKVSCKASGYTFTSYYMHWVRQAPGQGLEWMGIINPSGGSTSYAQKFQGRVTMTRDTSTSTVYMELSSLRSEDTAVYYCARGSAYYYDFADYWGQGTLVTVSSASTKGPSVFPLAPSSKSTSGGTAALGCLVKDYFPEPVTVSWNSGALTSGVHTFPAVLQSSGLYSLSSVVTVPSSSLGTQTYICNVNHKPSNTKVDKKVEPKSCDKTHTCPPCPAPEAAGGPSVFLFPPKPKDTLMISRTPEVTCVVVDVSHEDPEVKFNWYVDGVEVHNAKTKPREEQYNSTYRVVSVLTVLHQDWLNGKEYKCKVSNKALPAPIEKTISKAKGQPREPQVYTLPPSREEMTKNQVSLSCAVKGFYPSDIAVEWESNGQPENNYKTTPPVLDSDGSFFLVSKLTVDKSRWQQGNVFSCSVMHEALHNRYTQKSLSLSPGKGGSHHHHHH
chain 3: not shown
chain 4: not shown
B1 showed an EC50 of 1.97 nM.

B2: QP42664412 (antibody)
chain 1: DIVMTQSPDSLTVSLGERTTINCKSSQSVLDSSTNKNSLAWYQQKPGQPPKLLLSWASTRESGIPDRFSGSGSGTDFTLTIDSPQPEDSATYYCQQSAHFPITFGQGTRLEIKRTVAAPSVFIFPPSDEQLKSGTASVVCLLNNFYPREAKVQWKVDNALQSGNSQESVTEQDSKDSTYSLSSTLTLSKADYEKHKVYACEVTHQGLSSPVTKSFNRGEC
chain 2: QVQLVQSGAEVKKPGESVKVSCKASGYTFTNYGMNWVKQAPGQGLEWMGWINTYTGEPTYADKFQGRVTMTTDTSTSTAYMEIRNLGGDDTAVYYCARWSWSDGYYVYFDYWGQGTSVTVSSASTKGPSVFPLAPSSKSTSGGTAALGCLVKDYFPEPVTVSWNSGALTSGVHTFPAVLQSSGLYSLSSVVTVPSSSLGTQTYICNVNHKPSNTKVDKKVEPKSCDKTHTCPPCPAPEAAGGPSVFLFPPKPKDTLMISRTPEVTCVVVDVSHEDPEVKFNWYVDGVEVHNAKTKPREEQYNSTYRVVSVLTVLHQDWLNGKEYKCKVSNKALPAPIEKTISKAKGQPREPQVYTLPPSREEMTKNQVSLSCAVKGFYPSDIAVEWESNGQPENNYKTTPPVLDSDGSFFLVSKLTVDKSRWQQGNVFSCSVMHEALHNRYTQKSLSLSPGKGGSHHHHHH
chain 3: MEFGLSWLFLVAILKGVQCSYVLTQPSSVSVAPGQTATISCGGHNIGSKNVHWYQQRPGQSPVLVIYQDNKRPSGIPERFSGSNSGNTATLTISGTQAMDEADYYCQVWDNYSVLFGGGTKLTVLGGGGSGGGGSGGGGSITCPPPMSVEHADIWVKSYSLYSRERYICNSGFKRKAGTCSLTECVLNKATNVAHWTTPSLKCIR
chain 4: not shown
Molecule B2 showed an EC50 of 12 nM.

B3: QP42664400 (antibody)
chain 1: DIVMTQSPDSLTVSLGERTTINCKSSQSVLDSSTNKNSLAWYQQKPGQPPKLLLSWASTRESGIPDRFSGSGSGTDFTLTIDSPQPEDSATYYCQQSAHFPITFGQGTRLEIKRTVAAPSVFIFPPSDEQLKSGTASVVCLLNNFYPREAKVQWKVDNALQSGNSQESVTEQDSKDSTYSLSSTLTLSKADYEKHKVYACEVTHQGLSSPVTKSFNRGEC
chain 2: QVQLVQSGAEVKKPGESVKVSCKASGYTFTNYGMNWVKQAPGQGLEWMGWINTYTGEPTYADKFQGRVTMTTDTSTSTAYMEIRNLGGDDTAVYYCARWSWSDGYYVYFDYWGQGTSVTVSSASTKGPSVFPLAPSSKSTSGGTAALGCLVKDYFPEPVTVSWNSGALTSGVHTFPAVLQSSGLYSLSSVVTVPSSSLGTQTYICNVNHKPSNTKVDKKVEPKSCDKTHTCPPCPAPEAAGGPSVFLFPPKPKDTLMISRTPEVTCVVVDVSHEDPEVKFNWYVDGVEVHNAKTKPREEQYNSTYRVVSVLTVLHQDWLNGKEYKCKVSNKALPAPIEKTISKAKGQPREPQVYTLPPSREEMTKNQVSLSCAVKGFYPSDIAVEWESNGQPENNYKTTPPVLDSDGSFFLVSKLTVDKSRWQQGNVFSCSVMHEALHNRYTQKSLSLSPGKGGSHHHHHH
chain 3: not shown
chain 4: not shown
For B3, the response was half-maximal at 8.39 nM (EC50).

B4: QP42664421 (antibody)
chain 1: DIVMTQSPDSLTVSLGERTTINCKSSQSVLDSSTNKNSLAWYQQKPGQPPKLLLSWASTRESGIPDRFSGSGSGTDFTLTIDSPQPEDSATYYCQQSAHFPITFGQGTRLEIKRTVAAPSVFIFPPSDEQLKSGTASVVCLLNNFYPREAKVQWKVDNALQSGNSQESVTEQDSKDSTYSLSSTLTLSKADYEKHKVYACEVTHQGLSSPVTKSFNRGEC
chain 2: QVQLVQSGAEVKKPGESVKVSCKASGYTFTNYGMNWVKQAPGQGLEWMGWINTYTGEPTYADKFQGRVTMTTDTSTSTAYMEIRNLGGDDTAVYYCARWSWSDGYYVYFDYWGQGTSVTVSSASTKGPSVFPLAPSSKSTSGGTAALGCLVKDYFPEPVTVSWNSGALTSGVHTFPAVLQSSGLYSLSSVVTVPSSSLGTQTYICNVNHKPSNTKVDKKVEPKSCDKTHTCPPCPAPEAAGGPSVFLFPPKPKDTLMISRTPEVTCVVVDVSHEDPEVKFNWYVDGVEVHNAKTKPREEQYNSTYRVVSVLTVLHQDWLNGKEYKCKVSNKALPAPIEKTISKAKGQPREPQVYTLPPSREEMTKNQVSLSCAVKGFYPSDIAVEWESNGQPENNYKTTPPVLDSDGSFFLVSKLTVDKSRWQQGNVFSCSVMHEALHNRYTQKSLSLSPGKGGSHHHHHH
chain 3: MEFGLSWLFLVAILKGVQCITCPPPMSVEHADIWVKSYSLYSRERYICNSGFKRKAGTCSLTECVLNKATNVAHWTTPSLKCIRGGGSGGGGGGGGSSYVLTQPSSVSVAPGQTATISCGGHNIGSKNVHWYQQRPGQSPVLVIYQDNKRPSGIPERFSGSNSGNTATLTISGTQAMDEADYYCQVWDNYSVLFGGGTKLTVL
chain 4: not shown
In turn, B4 showed a 50% effective concentration (EC50) of 11.6 nM.

B5: QP42664269 (antibody)
chain 1: DIVMTQSPDSLTVSLGERTTINCKSSQSVLDSSTNKNSLAWYQQKPGQPPKLLLSWASTRESGIPDRFSGSGSGTDFTLTIDSPQPEDSATYYCQQSAHFPITFGQGTRLEIKRTVAAPSVFIFPPSDEQLKSGTASVVCLLNNFYPREAKVQWKVDNALQSGNSQESVTEQDSKDSTYSLSSTLTLSKADYEKHKVYACEVTHQGLSSPVTKSFNRGEC
chain 2: QVQLVQSGAEVKKPGESVKVSCKASGYTFTNYGMNWVKQAPGQGLEWMGWINTYTGEPTYADKFQGRVTMTTDTSTSTAYMEIRNLGGDDTAVYYCARWSWSDGYYVYFDYWGQGTSVTVSSASTKGPSVFPLAPSSKSTSGGTAALGCLVKDYFPEPVTVSWNSGALTSGVHTFPAVLQSSGLYSLSSVVTVPSSSLGTQTYICNVNHKPSNTKVDKKVEPKSCDKTHTCPPCPAPEAAGGPSVFLFPPKPKDTLMISRTPEVTCVVVDVSHEDPEVKFNWYVDGVEVHNAKTKPREEQYNSTYRVVSVLTVLHQDWLNGKEYKCKVSNKALPAPIEKTISKAKGQPREPQVYTLPPSREEMTKNQVSLSCAVKGFYPSDIAVEWESNGQPENNYKTTPPVLDSDGSFFLVSKLTVDKSRWQQGNVFSCSVMHEALHNRYTQKSLSLSPGKGGSHHHHHH
chain 3: not shown
chain 4: not shown
The molecule B5 registered an EC50 of 2.27 nM.

B6: QP42664406 (antibody)
chain 1: DIVMTQSPDSLTVSLGERTTINCKSSQSVLDSSTNKNSLAWYQQKPGQPPKLLLSWASTRESGIPDRFSGSGSGTDFTLTIDSPQPEDSATYYCQQSAHFPITFGQGTRLEIKRTVAAPSVFIFPPSDEQLKSGTASVVCLLNNFYPREAKVQWKVDNALQSGNSQESVTEQDSKDSTYSLSSTLTLSKADYEKHKVYACEVTHQGLSSPVTKSFNRGEC
chain 2: QVQLVQSGAEVKKPGESVKVSCKASGYTFTNYGMNWVKQAPGQGLEWMGWINTYTGEPTYADKFQGRVTMTTDTSTSTAYMEIRNLGGDDTAVYYCARWSWSDGYYVYFDYWGQGTSVTVSSASTKGPSVFPLAPSSKSTSGGTAALGCLVKDYFPEPVTVSWNSGALTSGVHTFPAVLQSSGLYSLSSVVTVPSSSLGTQTYICNVNHKPSNTKVDKKVEPKSCDKTHTCPPCPAPEAAGGPSVFLFPPKPKDTLMISRTPEVTCVVVDVSHEDPEVKFNWYVDGVEVHNAKTKPREEQYNSTYRVVSVLTVLHQDWLNGKEYKCKVSNKALPAPIEKTISKAKGQPREPQVYTLPPSREEMTKNQVSLSCAVKGFYPSDIAVEWESNGQPENNYKTTPPVLDSDGSFFLVSKLTVDKSRWQQGNVFSCSVMHEALHNRYTQKSLSLSPGKGGSHHHHHH
chain 3: not shown
chain 4: not shown
Molecule B6 had an EC50 of 11.3 nM. Compared with the last molecule, the EC50 is about 5-fold higher.

B7: QP42664415 (antibody)
chain 1: DIVMTQSPDSLTVSLGERTTINCKSSQSVLDSSTNKNSLAWYQQKPGQPPKLLLSWASTRESGIPDRFSGSGSGTDFTLTIDSPQPEDSATYYCQQSAHFPITFGQGTRLEIKRTVAAPSVFIFPPSDEQLKSGTASVVCLLNNFYPREAKVQWKVDNALQSGNSQESVTEQDSKDSTYSLSSTLTLSKADYEKHKVYACEVTHQGLSSPVTKSFNRGEC
chain 2: QVQLVQSGAEVKKPGESVKVSCKASGYTFTNYGMNWVKQAPGQGLEWMGWINTYTGEPTYADKFQGRVTMTTDTSTSTAYMEIRNLGGDDTAVYYCARWSWSDGYYVYFDYWGQGTSVTVSSASTKGPSVFPLAPSSKSTSGGTAALGCLVKDYFPEPVTVSWNSGALTSGVHTFPAVLQSSGLYSLSSVVTVPSSSLGTQTYICNVNHKPSNTKVDKKVEPKSCDKTHTCPPCPAPEAAGGPSVFLFPPKPKDTLMISRTPEVTCVVVDVSHEDPEVKFNWYVDGVEVHNAKTKPREEQYNSTYRVVSVLTVLHQDWLNGKEYKCKVSNKALPAPIEKTISKAKGQPREPQVYTLPPSREEMTKNQVSLSCAVKGFYPSDIAVEWESNGQPENNYKTTPPVLDSDGSFFLVSKLTVDKSRWQQGNVFSCSVMHEALHNRYTQKSLSLSPGKGGSHHHHHH
chain 3: MEFGLSWLFLVAILKGVQCQVQLVQSGAEVKKPGESLKVSCKASGYTFTSYYMHWVRQAPGQGLEWMGIINPSGGSTSYAQKFQGRVTMTRDTSTSTVYMELSSLRSEDTAVYYCARGSAYYYDFADYWGQGTLVTVSSGGGGSGGGGSGGGGSITCPPPMSVEHADIWVKSYSLYSRERYICNSGFKRKAGTCSLTECVLNKATNVAHWTTPSLKCIR
chain 4: not shown
B7 had an EC50 of 14.2 nM.
